Test results published in doi:10.1101/2021.10.13.464285.

Biological target: Respiratory syncytial virus fusion (F) glycoprotein (respiratory syncytial virus, strain rA2-mK+ (parent strain A2))
Experiment: cryo-EM structure

In the case of “Respiratory syncytial virus fusion (F) glycoprotein (natural protein)”, the stoichiometry N was 3.
